According to patent publication US20140134155A1 (TECHNISCHE UNIVERSIT T DRESDEN, published 2014):

B1: murine bispecific scBsTaFv CD3-PSCA(MB1) (bispecific antibody, part only; not given: anti-CD3 scFv and tags, not shown: small tags and cut ends)
chain, part: VQLQESGGVLVQPGGSLKLSCAASGFTFSSYSMSWIRQTPDRRLEWVAYINDSGGSTFYPDTVKGRFSISRDNAKNTLYLQISRLRSGDTAIYYCSRRMYYGNSHWHFDVWGAGTTVTVSSGGGGSGGGGSGGGGSDIVMTQSTSSLSASLGDRVTINCGTSQDINNYLNWYQQKPDGSVKLLIYYTSRLHSGVPSRFSGSGSGTDYSLTISNLEQGDIATYFCQQSKTLPWTFGGGTKLELKRADAAPTVS
B2: murine bispecific scBsTaFv CD3-PSCA(7F5) (bispecific antibody, part only; not given: anti-CD3 scFv, linkers, tags, part only)
chain, part: QVKLQESGGGLVQPGGSLKLSCVASGFTFSSYTMSWVRRTPEKRLEWVAYIHNGGGHTYYPDTIKGRFTISRDNAKNTLFLEMSSLKSEDTAMYYCTRRMYYGNSHWYFDVWGAGTSVTVSDIQMTQSPSSLSASVGDRVTITCRTSQDISNYLNWYQQKPGKAPKLLIYYTLKLNSGVPSRFSGSGSGTDFTFTISSLQPEDIATYYCQQSKTLPWTFGGGTKVEIK
B3: humanized bispecific scBsTaFv CD3-PSCA(MB1) (bispecific antibody)
chain: QVQLVQSGAEVKKPGASVKVSCKASGYTFTKYVIHWVRQAPGQGLEWMGYINPYNDVSKYNEKFRGRVTMTTDTSTSTAYMELRSLRSDDTAVYYCARNKDYYPMDYWGQGTTVTVSGGGGSGGGGSGGGGSEIVLTQSPATLSLSPGERATLSCSASSSVSYMHWYQQKPGQAPRLLIYDTSKLASGIPARFSGSGSGTDFTLTISSLEPEDFAVYYCQQWSSNPLTFGGGTKVEIKDIQMTQSPSSLSASVGDRVTITCGTSQDINNYLNWYQQKPGKVPKLLIYYTSRLHSGVPSRFSGSGSGTDFTLTISSLQPEDVATYYCQQSKTLPWTFGGGTQLTVLGGGGSGGGGSGASAAGGGGSGGGGSQVQLVESGGGLVKPGGSLRLSCAASGFTFSSYSMSWIRQAPGKGLEWVSYINDSGGSTFYPDTVKGRFTISRDNAKNSLYLQMNSLRAEDTAVYYCARRMYYGNSHWHFDVWGQGTTVTVSS

Assays:
[1] = target: T1, prostate-specific stem cell antigen (PSCA) (human) (UniProt O43653); test: cell-based or functional assay
T1 sequence (looked up): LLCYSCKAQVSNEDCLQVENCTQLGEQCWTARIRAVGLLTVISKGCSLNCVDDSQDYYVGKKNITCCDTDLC

[2] = target: T2, prostate-specific stem cell antigen (PSCA) (human, UniProt O43653 12-83); test: cell-based or functional assay
T2 sequence (looked up): T1 sequence (looked up)

antibody amount giving strong lysis of PSCA-positive cells (chrome release test) [1]	specific lysis of 51Cr-loaded PC3-PSCA tumor cells (chrome release test) [1]	specific lysis of 51Cr-loaded PC3-PSCA tumor cells (chrome release test, effector target ratio 10:1, 20 h) [2]	Binder
< 1 ng	80%		B1
	60%		B2
		> 90%	B3
